Where two headings read alike, the source gives them in different places.
Experiments:
Sirt7 (Sirt7WT) (human) [1] = test: fluorescence polarization
Sirt7-CLB (human) = test: NanoLuc complementation
[2] = test system: isolated NanoLuc Large Bit; test: NanoLuc complementation
Sirt7 (Sirt7WT) (human) [3] = test: kinetic titration

## 20 bp FAM-DNA
Sirt7 (Sirt7WT) (human) [1]
  Kd: 57.2 nM

## SMB-AcNucs (H3K18Ac small-bit nucleosome)
Sirt7-CLB (human); histone H3K18 acetylation
  Kd: 3.75 nM
  binding signal (fold lower Kd than without ADPr): 2.5

## SMB-Nucs (unmodified small-bit nucleosome)
Sirt7-CLB (human)
  Kd: 3.92 nM
[2]
  Kd: > 5000 nM

## nucleosome core particle (unmodified)
Sirt7 (Sirt7WT) (human) [3]
  Kd: 2.92 nM

From paper doi:10.1101/2022.05.11.491540
